Assay [1] has as its target T1, human 4Ig-B7H3 (B7H3-4Ig-His) (human, UniProt Q5ZPR3 29-466).
T1 construct: Recombinant His-tagged protein immobilised on a CM5 chip; also called 41g-B7H3; human 4Ig-B7-H3 (dominant isoform); not shown: His tag
T1 sequence: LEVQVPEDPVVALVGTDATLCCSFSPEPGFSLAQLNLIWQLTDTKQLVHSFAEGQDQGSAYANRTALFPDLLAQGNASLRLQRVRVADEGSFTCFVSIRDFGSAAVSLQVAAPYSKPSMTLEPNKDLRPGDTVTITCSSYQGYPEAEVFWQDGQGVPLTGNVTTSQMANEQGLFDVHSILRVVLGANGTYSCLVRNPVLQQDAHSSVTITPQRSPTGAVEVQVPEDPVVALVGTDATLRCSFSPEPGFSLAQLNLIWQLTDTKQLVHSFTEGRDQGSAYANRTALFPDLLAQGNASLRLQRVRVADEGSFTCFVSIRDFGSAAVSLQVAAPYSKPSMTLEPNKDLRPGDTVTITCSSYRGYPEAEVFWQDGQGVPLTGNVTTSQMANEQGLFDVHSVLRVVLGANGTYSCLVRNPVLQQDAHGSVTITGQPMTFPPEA
As to the kind of experiment: SPR. Here is the method: (§1) Both human B7H3 41g and 21g proteins were dissolved in PBS (Phosphate-Buffered Saline) to make 0.1 mg/ml stock solution and stored in −80° C. B7-H3 proteins were immobilized onto the CM5 sensor chip using Amine Coupling Kit. Both proteins were diluted to 10 ug/ml with 10 mM Sodium acetate, pH 5.0. […] A blank immobilized surface was used as a control
(§2) Binding Assays: [0143] 1. Antibodies were diluted in HBS-EP buffer (10 mM HEPES, 150 mM NaCl, 3 mM EDTA, 0.05% Surfactant P20, pH 7.4) at varying concentrations (25-50-100-200-400 nM) prior to analysis. […] 2. Samples (60 ul) were injected over the sensor surface at a flow rate of 30 ul/min over 2 min. [0145] 3. Following completion of the association phase, dissociation was monitored in HBS-EP buffer for 10 min at the same flow rate. […] 4. At the end of each cycle, the surface was regenerated using 10 mM NaOH at a flow rate of 50 ul/min over 2×15 sec.
(In SPR one partner is held on a chip, and binding of the other changes the refractive index at the surface.)

Assay [2] deals with T2, human 2Ig-B7H3 (B7H3-2Ig-His) (human, UniProt Q5ZPR3 29-466).
T2 construct: Recombinant His-tagged protein immobilised on a CM5 chip; also called 21g-B7H3; B7H3-21g-His; not shown: His tag
T2 sequence: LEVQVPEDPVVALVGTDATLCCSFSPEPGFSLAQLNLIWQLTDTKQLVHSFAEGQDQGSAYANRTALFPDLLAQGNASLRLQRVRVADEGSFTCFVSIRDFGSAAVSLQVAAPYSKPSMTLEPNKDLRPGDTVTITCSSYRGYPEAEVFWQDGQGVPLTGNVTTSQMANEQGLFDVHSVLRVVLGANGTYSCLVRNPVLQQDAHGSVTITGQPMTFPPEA
As to the kind of experiment: SPR. Here is the method:
as §1, §2

Assay [3] concerns the target T2, human 2Ig-B7H3 (B7H3-2Ig-His). As to the kind of experiment: SPR; CHX-A''-DTPA conjugate, CAR 0.6, unlabeled.
Assay [4] shares this target. As to the kind of experiment: SPR, Biacore T200, 2Ig-B7H3-His on CM5 chip, 1:1 fit. How it is done:
as §1, §2
(§3) The data were analyzed by the 1:1 fitting model and default parameter setting for the rate constants using the Biacore T200 Evaluation Software, and the apparent association on rate constant (kon, ka), dissociation off rate constant (koff, kd) and equilibrium dissociation constant (KD=kd/ka) were calculated.

For assay [5], the target named is T1, human 4Ig-B7H3 (B7H3-4Ig-His). Description: SPR, Biacore T200, 4Ig-B7H3-His on CM5 chip, 1:1 fit. How it is done:
as §1, §2

Assay [6] shares this target. Description: SPR. Here is the method: as §1, §3
The source holds these as a separate data set.

The target of assay [7] is T2, human 2Ig-B7H3 (B7H3-2Ig-His). Description: SPR. How it is done: as §1, §3
This is another data set of the same source.

The target is the same in assay [8]. As to the kind of experiment: SPR, Biacore T200, 2Ig-B7H3-His on CM5 chip, 1:1 fit. Here is the method:
as §1, §3
This is another data set of the same source.

Assay [9] deals with T1, human 4Ig-B7H3 (B7H3-4Ig-His). As to the kind of experiment: SPR, Biacore T200, 4Ig-B7H3-His on CM5 chip, 1:1 fit. How it is done: as §1, §3
The source holds these as a separate data set.

For assay [10], the target named is T2, human 2Ig-B7H3 (B7H3-2Ig-His). Description: SPR; CHX-A''-DTPA conjugate, CAR 1.4, labeled with cold 175Lu. Here is the method: as §1, §2
Assay [11] has the same target. As to the kind of experiment: SPR; CHX-A''-DTPA conjugate, CAR 3.6, labeled with cold 175Lu. Here is the method: as §1, §2
For assay [12] the target is unchanged. As to the kind of experiment: SPR; CHX-A''-DTPA conjugate, CAR 3, labeled with cold 175Lu. Here is the method:
as §1, §2

The target is the same in assay [13]. As to the kind of experiment: SPR; 127I-labeled 8H9. How it is done: as §1, §2
For assay [14] the target is unchanged. As to the kind of experiment: SPR, Biacore T200, 2Ig-B7H3-His on CM5 chip, 1:1 fit; 127I-labeled 8H9, lot P76501A. How it is done: as §1, §2
For assay [15] the target is unchanged. Description: SPR, Biacore T200, 2Ig-B7H3-His on CM5 chip, 1:1 fit; DOTA conjugate, CAR 6.3, labeled with cold 175Lu. Here is the method:
as §1, §2

For assay [16] the target is unchanged. Description: SPR; CHX-A''-DTPA conjugate, CAR 1.4, unlabeled.
Assay [17] shares this target. As to the kind of experiment: SPR, Biacore T200, 2Ig-B7H3-His on CM5 chip, 1:1 fit; CHX-A''-DTPA conjugate, CAR 3.6, unlabeled.

As usually defined, the Kd is a measure of binding affinity in units of concentration. Low values mean tighter binding, high ones weaker binding.

B1: 8H9 antibody conjugated with p-SCN-Bn-CHX-A″-DTPA, CAR 0.6 (antibody, mouse IgG1, kappa, V domains shown)
VH: QVQLQQSGAELVKPGASVKLSCKASGYTFTNYDINWVRQRPEQGLEWIGWIFPGDGSTQYNEKFKGKATLTTDTSSSTAYMQLSRLTSEDSAVYFCARQTTATWFAYWGQGTLVTVSA
VL: DIVMTQSPATLSVTPGDRVSLSCRASQSISDYLHWYQQKSHESPRLLIKYASQSISGIPSRFSGSGSGSDFTLSINSVEPEDVGVYYCQNGHSFPLTFGAGTKLELKR
modifications: p-SCN-Bn-CHX-A″-DTPA conjugated, CAR 0.6 per antibody; sites not stated
notes: Chelator conjugate, not metal-labelled; also called conj-CHX-A″-DTPA (CAR0.6)
Take B1: the Kd was 10.1 nM in [1], 1.22 nM in assay [3], 1.22 nM in assay [4] and 10.1 nM in assay [5]. The figures for the t ½ in assay [1], in [2] and in assay [5] were 0.883 h, 5.72 h and 0.883 h, respectively. Moreover, in assay [4], the “T ½” value amounted to 5.72 h.

B2: 175Lu-DTPA-8H9-antibody (CAR1.4) (antibody, mouse IgG1, kappa, V domains shown)
VH: QVQLQQSGAELVKPGASVKLSCKASGYTFTNYDINWVRQRPEQGLEWIGWIFPGDGSTQYNEKFKGKATLTTDTSSSTAYMQLSRLTSEDSAVYFCARQTTATWFAYWGQGTLVTVSA
VL: DIVMTQSPATLSVTPGDRVSLSCRASQSISDYLHWYQQKSHESPRLLIKYASQSISGIPSRFSGSGSGSDFTLSINSVEPEDVGVYYCQNGHSFPLTFGAGTKLELKR
modifications: p-SCN-Bn-CHX-A″-DTPA conjugated (CAR 1.4 per antibody), labelled with cold lutetium-175; sites not stated
Turning to B2, the Kd in assay [6] was 7.64 nM; in [8] it was 0.217 nM; in assay [9] it was 7.64 nM; in assay [10] it was below 0.316 nM. Further, the t ½ came to 1.26 h in [6], 28.1 h in assay [7], 28.1 h in assay [8] and 1.26 h in [9].

B3: 175Lu-DTPA-8H9-antibody (CAR3.6) (antibody, mouse IgG1, kappa, V domains shown)
VH: QVQLQQSGAELVKPGASVKLSCKASGYTFTNYDINWVRQRPEQGLEWIGWIFPGDGSTQYNEKFKGKATLTTDTSSSTAYMQLSRLTSEDSAVYFCARQTTATWFAYWGQGTLVTVSA
VL: DIVMTQSPATLSVTPGDRVSLSCRASQSISDYLHWYQQKSHESPRLLIKYASQSISGIPSRFSGSGSGSDFTLSINSVEPEDVGVYYCQNGHSFPLTFGAGTKLELKR
modifications: p-SCN-Bn-CHX-A″-DTPA conjugated (CAR 3.6 per antibody), labelled with cold lutetium-175; sites not stated
Consider B3, for which the dissociation constant Kd in assay [6] is 18.5 nM; in assay [8] it was 2.34 nM; in assay [9], 18.5 nM; in [11], 2.34 nM. The t ½ amounted to 0.722 h in [6], 5 h in [7], 5 h in assay [8] and 0.722 h in [9].

B4: 175Lu-DTPA-8H9-antibody (CAR3) (antibody, mouse IgG1, kappa, V domains shown)
VH: QVQLQQSGAELVKPGASVKLSCKASGYTFTNYDINWVRQRPEQGLEWIGWIFPGDGSTQYNEKFKGKATLTTDTSSSTAYMQLSRLTSEDSAVYFCARQTTATWFAYWGQGTLVTVSA
VL: DIVMTQSPATLSVTPGDRVSLSCRASQSISDYLHWYQQKSHESPRLLIKYASQSISGIPSRFSGSGSGSDFTLSINSVEPEDVGVYYCQNGHSFPLTFGAGTKLELKR
modifications: p-SCN-Bn-CHX-A″-DTPA conjugated (CAR 3 per antibody), labelled with cold lutetium-175; sites not stated
Regarding B4, the Kd in assay [6] came out at 16.2 nM; in assay [8], 1.8 nM; in assay [9], 16.2 nM; in assay [12], 1.8 nM. The t ½ in [6] came to 0.811 h; in assay [7], 5.94 h; in assay [8] it was 5.94 h; in [9] it was 0.811 h.

B5: 127I-8H9-antibody P76501A (antibody, mouse IgG1, kappa, V domains shown)
VH: QVQLQQSGAELVKPGASVKLSCKASGYTFTNYDINWVRQRPEQGLEWIGWIFPGDGSTQYNEKFKGKATLTTDTSSSTAYMQLSRLTSEDSAVYFCARQTTATWFAYWGQGTLVTVSA
VL: DIVMTQSPATLSVTPGDRVSLSCRASQSISDYLHWYQQKSHESPRLLIKYASQSISGIPSRFSGSGSGSDFTLSINSVEPEDVGVYYCQNGHSFPLTFGAGTKLELKR
modifications: labelled with iodine-127; sites not stated
For B5, the Kd in assay [6] was 0.666 nM; in assay [13] it was below 0.0787 nM; in assay [9], 0.666 nM; in assay [14], below 0.0787 nM. Also, the t ½ is 4.39 h in assay [6], 308 h in assay [7], 308 h in [8] and 4.39 h in [9].

B6: 175Lu-DOTA-8H9-antibody (CAR6.3) (antibody, mouse IgG1, kappa, V domains shown)
VH: QVQLQQSGAELVKPGASVKLSCKASGYTFTNYDINWVRQRPEQGLEWIGWIFPGDGSTQYNEKFKGKATLTTDTSSSTAYMQLSRLTSEDSAVYFCARQTTATWFAYWGQGTLVTVSA
VL: DIVMTQSPATLSVTPGDRVSLSCRASQSISDYLHWYQQKSHESPRLLIKYASQSISGIPSRFSGSGSGSDFTLSINSVEPEDVGVYYCQNGHSFPLTFGAGTKLELKR
modifications: p-SCN-Bn-DOTA conjugated (CAR 6.3 per antibody), labelled with cold lutetium-175; sites not stated
Turning to B6, the “t ½” value in assay [8] is 5.39 h; in assay [9], 0.742 h. The Kd came out at 19.5 nM in [9] and 2.34 nM in [15].

B7: 8H9 antibody conjugated with p-SCN-Bn-CHX-A″-DTPA, CAR 1.4 (antibody, mouse IgG1, kappa, V domains shown)
VH: QVQLQQSGAELVKPGASVKLSCKASGYTFTNYDINWVRQRPEQGLEWIGWIFPGDGSTQYNEKFKGKATLTTDTSSSTAYMQLSRLTSEDSAVYFCARQTTATWFAYWGQGTLVTVSA
VL: DIVMTQSPATLSVTPGDRVSLSCRASQSISDYLHWYQQKSHESPRLLIKYASQSISGIPSRFSGSGSGSDFTLSINSVEPEDVGVYYCQNGHSFPLTFGAGTKLELKR
modifications: p-SCN-Bn-CHX-A″-DTPA conjugated, CAR 1.4 per antibody; sites not stated
notes: Chelator conjugate, not metal-labelled
Regarding B7, the Kd came to 10 nM in [1], 1.93 nM in assay [16], 1.93 nM in [4] and 10 nM in assay [5]. In addition, the t ½ in assay [1] was found to be 1.09 h; in assay [2], 3.94 h; in [5] it was 1.09 h. In addition, the “T ½” value in assay [4] was determined as 3.94 h.

B8: 8H9 antibody conjugated with p-SCN-Bn-CHX-A″-DTPA, CAR 3.6 (antibody, mouse IgG1, kappa, V domains shown)
VH: QVQLQQSGAELVKPGASVKLSCKASGYTFTNYDINWVRQRPEQGLEWIGWIFPGDGSTQYNEKFKGKATLTTDTSSSTAYMQLSRLTSEDSAVYFCARQTTATWFAYWGQGTLVTVSA
VL: DIVMTQSPATLSVTPGDRVSLSCRASQSISDYLHWYQQKSHESPRLLIKYASQSISGIPSRFSGSGSGSDFTLSINSVEPEDVGVYYCQNGHSFPLTFGAGTKLELKR
modifications: p-SCN-Bn-CHX-A″-DTPA conjugated, CAR 3.6 per antibody; sites not stated
notes: as for B7
For the molecule B8, the values for the Kd in assay [1], in [5] and in assay [17] were 26.9 nM, 26.9 nM and 9.46 nM, respectively. Moreover, the figures for the t ½ in [1], in [2] and in [5] were 0.508 h, 1.25 h and 0.508 h, respectively. For the same molecule, the “T ½” value in assay [4] turned out to be 1.25 h.

(Values after patent publication US20230293738A1 (Y MABS THERAPEUTICS, published 2023).)
